For 1 substance, fold XafT recovered against amylose beads alone results are on record in article PMC6744903.

In this test the target is MBP-XerD (V. cholerae) (UniProt Q9KPE9). Put plainly: pull-down.

Regarding purified XafT peptide (natural protein), the fold XafT recovered against amylose beads alone worked out at 3 fold.
